The Immune Epitope Database (IEDB)

Key:
HLA-A*01:01 = experiment: IEDB peptide-MHC binding, purified MHC/direct/fluorescence; filed as Kd, often an IC50 or EC50 that approximates it; ≥ and ≤ were set here for values at or beyond the usual limits of such assays
HLA-A*02:01 = experiment: as above
HLA-A*03:01 = experiment: as above
HLA-A*11:01 = experiment: as above
HLA-A*26:01 = experiment: as above
HLA-A*31:01 = experiment: as above; details: source organism: Cryptosporidium parvum
HLA-A*69:01 = experiment: as above
HLA-B*07:02 = experiment: as above
HLA-B*08:01 = experiment: as above
HLA-B*15:01 = experiment: as above
HLA-B*15:17 = experiment: as above; details: source organism: Cryptosporidium parvum
HLA-B*27:05 = experiment: as above
HLA-B*35:01 = experiment: as above
HLA-B*40:01 = experiment: as above
HLA-B*44:02 = experiment: as above
HLA-B*57:01 = experiment: as above; details: source organism: Cryptosporidium parvum
HLA-C*15:02 = experiment: as above; details: source organism: Cryptosporidium parvum
HLA-B*58:01 [1] = experiment: IEDB peptide-MHC binding, purified MHC/competitive/fluorescence; filed as Kd, often an IC50 or EC50 that approximates it; ≥ and ≤ were set here for values at or beyond the usual limits of such assays; details: source organism: Mycobacterium tuberculosis C
HLA-A*24:03 = experiment: IEDB peptide-MHC binding, purified MHC/direct/fluorescence; filed as Kd, often an IC50 or EC50 that approximates it; ≥ and ≤ were set here for values at or beyond the usual limits of such assays
HLA-A*30:01 = experiment: as above
HLA-B*58:01 [2] = experiment: as above
HLA-A*23:01 = experiment: IEDB peptide-MHC binding, purified MHC/competitive/fluorescence; filed as Kd, often an IC50 or EC50 that approximates it; ≥ and ≤ were set here for values at or beyond the usual limits of such assays; details: source organism: Salmonella enterica subsp. enterica serovar Typhi
[3] = source organism: Cryptosporidium parvum
[4] = source organism: Collimonas fungivorans
[5] = source organism: Giardia lamblia ATCC 50803

ISCQIYNAL was tested, and the Kd (HLA-A*01:01; [3]) was at least 20 µM, the Kd (HLA-A*02:01; [3]) was at least 20 µM and the Kd (HLA-A*03:01; [3]) was at least 20 µM. It also gave a Kd (HLA-A*11:01; [3]) of at least 20 µM, a Kd (HLA-A*26:01; [3]) of at least 20 µM and a Kd (HLA-A*31:01) of at least 20 µM. For the same sequence, the Kd (HLA-A*69:01; [3]) was at least 20 µM, the Kd (HLA-B*07:02; [3]) was at least 20 µM and the Kd (HLA-B*08:01; [3]) was at least 20 µM. The Kd (HLA-B*15:01; [3]) was 0.27 µM, the Kd (HLA-B*15:17) was 0.0826 µM and the Kd (HLA-B*27:05; [3]) was at least 20 µM. The Kd (HLA-B*35:01; [3]) was 0.169 µM, the Kd (HLA-B*40:01; [3]) was 0.192 µM and the Kd (HLA-B*44:02; [3]) was at least 20 µM. It also gave a Kd (HLA-B*57:01) of at least 20 µM and a Kd (HLA-C*15:02) of 0.385 µM.
For RSFRIHILF, the Kd (HLA-B*15:01; source organism: Mycobacterium tuberculosis) was at least 10 µM and the Kd (HLA-B*58:01 [1]) was 4.4 µM.
With AYSPFAFKK the Kd (HLA-A*01:01; [4]) was at least 20 µM, the Kd (HLA-A*02:01; [4]) was at least 20 µM and the Kd (HLA-A*03:01; [4]) was 2.28 µM. The Kd (HLA-A*11:01; [4]) was 0.168 µM, the Kd (HLA-A*24:03; [4]) was 2.4 µM and the Kd (HLA-A*26:01; [4]) was at least 20 µM. The Kd (HLA-A*30:01; [4]) was 0.00979 µM, the Kd (HLA-A*69:01; [4]) was at least 20 µM and the Kd (HLA-B*07:02; [4]) was at least 20 µM. The Kd (HLA-B*08:01; [4]) was at least 20 µM, the Kd (HLA-B*15:01; [4]) was at least 20 µM and the Kd (HLA-B*27:05; [4]) was at least 20 µM. It also gave a Kd (HLA-B*40:01; [4]) of at least 20 µM and a Kd (HLA-B*58:01 [2]; [4]) of at least 20 µM.
Sequence SYPPPPASF has a Kd (HLA-A*01:01; [5]) of at least 20 µM, a Kd (HLA-A*02:01; [5]) of at least 20 µM and a Kd (HLA-A*03:01; [5]) of at least 20 µM. For the same sequence, the Kd (HLA-A*11:01; [5]) was at least 20 µM, the Kd (HLA-A*24:03; [5]) was 0.00084 µM and the Kd (HLA-A*26:01; [5]) was at least 20 µM. The Kd (HLA-A*30:01; [5]) was at least 44.4 µM, the Kd (HLA-A*69:01; [5]) was at least 20 µM and the Kd (HLA-B*08:01; [5]) was at least 20 µM. The Kd (HLA-B*15:01; [5]) was at least 10 µM, the Kd (HLA-B*27:05; [5]) was at least 20 µM and the Kd (HLA-B*35:01; [5]) was 1.59 µM. The Kd (HLA-B*40:01; [5]) was at least 20 µM, the Kd (HLA-B*44:02; [5]) was at least 20 µM and the Kd (HLA-B*58:01 [2]; [5]) was at least 20 µM.
With IWQWIHHEK the Kd (HLA-A*23:01) was 0.178 µM.
